The results in this text go back to paper PMC7041689.

The target of one assay is CyPet-XCTK2 (Xenopus) (UniProt P79955). As to the kind of experiment: FRET or BRET.
Assay [1] concerns the target 6His-YPet-XCTK2-Tail (Xenopus) (UniProt P79955). The assay is described as follows: co-sedimentation.
In a further assay the target is YPet-XCTK2 (Xenopus) (UniProt P79955). As to the kind of experiment: FRET or BRET. On the technique in general: In BRET a luciferase serves as donor, and the signal depends on an acceptor being close.
The next assay has as its target microtubules. The assay is described as follows: co-sedimentation.

Molecule 6His-importin α-YPet (natural protein) had a fold decrease of Kd with importin β against without importin β with CyPet-XCTK2 (Xenopus) of 5 fold.

In assay [1], importin α-6His (natural protein) showed a percent decrease of the amount of YPet-XCTK2-Tail bound to MTs (1× importin α/β) of 46% and a percent decrease of the amount of YPet-XCTK2-Tail bound to MTs (4× importin α/β) of 53%.

As to importin α-CyPet (natural protein), in the assay with YPet-XCTK2 (Xenopus), the mean line scan CyPet lifetime (importin α-CyPet + Ran without YPet 1.68) is 1.55 ns.

B1: 6His-YPet-XCTK2-Tail (domain or fragment)
chain: DSTDKKVQVASRLPVPPKRKYVSNDENQEQMQRKRLRSSLESELPAVRVAASIATSKPRAAPVAALPKPQVIGRQSLAVMRPKNSGPGITSTSFSGKTKVSSSVTQPAAIGAEKKKRAA
In turn, B1 gave a fold increase of Kd with 4× importin α/β against no importin α/β with microtubules of 10 fold.
